Test results: the RNAGym collection of RNA variant scans (doi:10.1073/pnas.2313332121)
Variants at the floor of the assay were thinned out.

B1: TPR 5TU (parent)
chain: GGAUCUUCUCGAUCUAACAAAAAAGACAAAUCUGCCACAAAGCUUGAGAGCAUCUUCGGAUGCAGAGGCGGCAGCCUUCGGUGGCGCGAUAGCGCCAACGUUCUCAACUAUGACACGCAAAACGCGUGCUCCGUUGAAUGGAGUUUAUCAUG

Variants of: B1
Experiment: polymerase ribozyme fitness, log enrichment relative to wild type (log ratio); higher = more active; in vitro selection for triplet polymerase activity
Procedure, shortened: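 Input and output libraries were sequenced on Illumina after a single in vitro selection round, run in triplicate on PCR-built, transcribed mutant libraries of each subunit of a heterodimeric triplet polymerase ribozyme. Selection annealed libraries to a biotinylated primer, the partner subunit and triplets, incubated them frozen at −7 °C, then gel-excised extended constructs for streptavidin-bead capture and RT-PCR. Genotypes with ≥10 input reads and ≥1 read per output were kept. Fitness is the logarithm, taken in base 2, of genotype enrichment divided by wild-type enrichment, using inverse-variance-weighted replicate averages.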

Variant	polymerase ribozyme fitness (log ratio)
GGAUCUUUUCGAUCUAACAAAAAACACAAAUCUGCCACAAAGCUUGAGAGCAUCUUCGGAUGCAGAGGCGGCAGCCUUCGGAGGCGAGAUAGCGCCAACGUUCUCAACUAUGACACGCAAAACGCGUGCUCCGUUGAAUGGAGUUUAUCAUG	≤ -4.2
GGAUCUUUUCGAUCUAACAAAAAAGACAAAUCUGCCACAAAGCUUGAGAGCAUCAUCGGAUGCAGAGGCGGCAGCCUUCGGUGGCGCGAUAGCGCCAACGUUCUCAACUAUGACACGCAAAACGCGUGCUCCGUUGAAUGGAGUUUAUCAUG	-2.51
GGAUCUUUUCGAUCUAACAAAAAAGACAAAUCUGCCACAAAGCUUGAGAGCAUCUUCGGAUGCAGAGGCGGCAGCCUUCGGUGGCGCUAUAACGCCAACGUUCUCAACUAUGACACGCAAAACGCGUGCUCCGUUGAAUGGAGUUUAUCAUG	≤ -4.2
GGAUCUUUUCGAUCUAACAAAAAAGACAAAUCUGCCACAAAGCUUGAGAGCAUCUUCGGAUGCAGAGGCGGCAGCCUUCGUUGGCGCGAUAGCGUCAACGUUCUCAACUAUGACACGCAAAACGCGUGCUCCGUUGAAUGGAGUUUAUCAUG	≤ -4.2
GGAUCUUUUCGAUCGAACAAAAAAGACAAAUCUGCCACAAAGCUUGAGGGCAUCUUCGAGUGCAGAGGCAGCAGCCUUCGGUGGCCCGAUAGUGCCAACGUUCUCGACUAUGACACGCAAAACGCGUGCUCCGUCGAAUGGAGUUUAUCAUG	≤ -4.2
GGAUCUUUUCGAUCUAACAAAAAAGACAAAUCUGCCACAAAGCUUGAGAGCAUCUUCGGAUGCAGAGGCGGCAGCCUUCGGUCGCGCGAUAGCGCCAACGUUCUCAACUAUGACACGCAAAACGUGUGCUCCGUUGAAUGGAGUUUAUCAUG	≤ -4.2
GGAUCUUUUCGAUCUAACAAAAAAGACAAAUCUGCCACAAAGCGUGAGAGCAUCAUCGGAUGCAGAGGCGGCAGCCUUUGGUGGCGCAAUAGCGCCAACGUUCUCAACUUUGACACGCAAAACGCGUGCUCCGUUGAAUGGAGUUUAUCAUG	≤ -4.2
GGAUCUUUUCGACCUAACAAAGAAGACAAAUCUGCCACAAAGCUUGAGAGCAUCUUCGGAUGCAGAGGCGGCAGCCUUCGGUGGCGCGAUAGUGCCAACGUUCUCAACUAUGACACGCAAAACGCAUGCUCCGUUGAAUGGAGUUUAUCAUG	-1.08
GGAUCUUUUCGAUCUAACAAAAAAGACAAAUCUGCCACAAAGCUUGAGAGCAACUUCGGAUGCAGAGGCGGCAGCCUUCGGUGGCGCGAUAGCGCCAACGUUCUCAACUAUGACACGCAAAACGCGUGCUCCGUUGAAUGGAGUUUAUCAUG	-3.41
GGAUCUUUUCGAUCUAACAAAAAAGACAAAUCUGCCACAAAGCUUGAGAGCAUCUUCGGAUGCAGAGGCGGCAGCCUUCGCUGGCGCGAUAGCGCCAACGUUCUCAACUAUGACACGCAAAACGCGUGCUCCGUUGAAUGGAGUUUAUCAUG	-3.94
GGAUCUUUUCGAUCAAACAAAAAAGACAAAUCUGCCACAAAGCUUGAGAGCAUCUUCUGAUGCAGAGGAGGCAGCCUUCGGUGGAGCGAUAGCGCCAACGUUCUCAACUAUGACACGCAAAACCCGUGCUCCGUUGAAUGGAGUUUAUCAUG	-3.61
GGAUCUUUUCGAUCUAACAAAAAAGACAAAUCUGCCACAAACCUUGAGAGUAUCUUCGGAGGCAGAGGCGGCAGCCUUCGGUGGCGCGAUAGCGACAACGUUCUCAACUAUGACACGCAAAACGGGGGCUCCGUUGUAUGGAGUUUAUGAUG	≤ -4.2
GGAUCUUUUCGAUCUAACAAAAAAGACAAAUCAGCCCCAAAGCUUGAGAACAUCUUCGGUUGCAGAGGCGGAAGCCUUCGGUGGCACGAAAGCGCCAACGUUCUCAACUAUGACACGCAAAACGCGUGCUCCGUUGAGUGGAGUUUAUCAGG	≤ -4.2
GGAUCUUUUCGAUCGAGCAAAAAAGACAAGUCUGCCACAAAGCGUGAGAGCAUCUUCGGAUGCAGAGGCGGCAGCAUUCGGUGGCGAGAUAGCGCCAACGUUCUCAACUAUGACACGCAAAACGCGUGCUCCGUUGAAUGGAGUUUAUCAUG	≤ -4.2
GGAUCUUUUCGAUCUAACAAAAAAGACAAAUCUGCCACAAAGCUUGAGAGCAUCUUCGGAUGCAGAGGCGGCAGCCUUGGGUGACGCGAUAGCCCCAACGUUCUCAACUAUGACACGCAAAACGCGUGCUCCGUUCAGUGGAGUUUAUCGUG	≤ -4.2
GGAUCUUUUCGAUCUAACAAAAAAGACAAAUCUGCCACAAAGCUUGAGAGCAUCUUCGGAUGCAGAGGCGGCAGCCUUCGGUGGCGCGAUAGCGCGAACGUUCUCAACUAUGACACGCAAAACGCGUGCUCCGUUGAAUGGAGUUUAUCAUG	-2.63
GGAUCUUUUCGAUCUAACAAAAAAGACAAAUCUGCCACAAAGCUUGAGAGCAUCUUCGGAUGCAGAGGCGGCAGCCUUCGGUGGCGCGAUAGCGCUAACGUUCUCAACUAUGACACGCAAAACGCGUGCUCCGUUGAAUGGAGUUUAUCAUG	-2.69
GGAUCUUUUCGAUCUAACAAAAAAGACAAAGCUGCCACAAAGCUUGAGAGCAUCUUCGGAUGCAGAGGCGGCAGCCUUCGGUGGCGCGAUAGCGCCAACGUUCUCAACUAUGACACGCAAAACGCGUGCUCCGUUGAAUGGAGUUUAUCAUG	-3.21
GGAUCUUUUCGAUCUAACAAAAAAGACAAAUCUGCCACAAAGCUUGAGAGCAUCUUCGGAUGCAGAGGCGGCAGCCUUCGGUGGGGCGAUAGCGCCAACGUUCUCAACUAUGACACGCAAAACGCGUGCUCCGUUGAAUGGAGUUUAUCAUG	-3.44

Variant	polymerase ribozyme fitness (log ratio)
GGAUCUUUGCGAUCUAAGAAAAAAGACAAAUCGGCCACAAAGCUUGAGAGCAUCAUCGGAUGCAGAGGCGGCAGCCUUCGGUGGCGCGAUAGCGUCAACGUUCUUAACUAUUACACGCAAAACGCGUGCUCUGUUGAAUGGAGUUUUUCAUG	≤ -4.2
GGAUCUUUUCGAUCUAACAAAAAAGACAAAUCUGCCACAAAGCUUGAGAGCAUCUUCGGAUGCAGAGGCGGCAGCCUUCGGUUGCGCGAUAGCGCCGACGUUCUCAACUAUGACACGCAAAACGCGUGCUCCGUUGAAUGGUGUUUAUCAUG	-4.17
GGAUCUUUUCGAUCUAACAAAAAAGACAAAUCUGCCACAAAGCUUGAGAGCAUCUUCGAAUGCAGAGGCGGCAGCCUUCGGUGGCGCGAUAGCGCCAACGUUCUCAACUAUGACAUGCAAAACGCGUGCUCCGUUGAAUGGAGUUUAUCAUG	-3.27
GGAUCUUUUCGAUCUAACAAAAAAGACAAAUCUGCCACAAAGCUUGAGAGCAUCUUCGGAUGCAGAGGCGGCAGCCUUCGGUGGCGCUAUAGUGCCAACGUUCUCAACUAUGACACGCAAAACGCGUGCUCCGUUGAAUGGAGUUUAUCAUG	-4.14
GGAUCUUUUCGAUCUAACAAAAAAGACAAAUCUGCCACAAAGCUUGAGAGCAUCUUCGGAUGCAGAGGCGGCAGCCUUCGGGGGCGAGAUAGCGCCAACGUUCUCAACUAUGACACGCAAAACGCGUGCUCCGUUGAAUGGAGUUUAUCAUG	≤ -4.2
GGAUCUUCACGAUCUAACAAAAAAGACAAAUCUGCCACAAAGCUUGAGAGCAUCUUCGGAUGCAGAGGCGGCAGCCUUCGGUGGCGCGAUAGCGCCAACGUUCUCAACUAUGACACGCAAAACGCGUGCUCCGUUGAAUGGAGUUUAUCAUG	-2.7
GGAUCUUUUCGAUCUAACAAAAAAGACAAAUCUGCCACAAAGCUUGAGAGCAUCUUCGGAUGCAGAGGCGGCAGCCUUCGGUGGCGCGAUAGCGCCAACGUUCUCAACUAUGACACGCAAAAGGCGUGCUCCGUUGAAUGGAGUUUAUCAUG	-3.42
GGAUCUUUUCGAUCUAACAAAAAAGACAAAUCUGCCACAAAGCUUGAGAGCAUCUUCGGAUGCAGAGGCGGCAGCCUUCGGUGGCGCGAUAGCGCCAACGUUCUCAACUAUGACACGCAAAACGCGUGCUCCGUUGAAUGCAGUUUAUCAUG	-2.78
GGAUCUUUUCGAUCUAACAAAAAAGACAAAUCUGCCACAAAGCUUGAGAGCAUCUUCGGAUGCAGAGGCGGCAGCCUUCGGUGGCGCGAUAUCGCCAACGUUCUCAACUAUGACACGCAAAACGCGUGCUCCGUUGAAUGGAGUUUAUCAUG	-3.35
GGAUCUUUUCGAUCUAACAAAAAAGACAAAUCUGCCACAAAGCUUGAGAGCAUCUUCGGAUGCAGAGGCGGCAGCCUUCGAUGGCGCAAUAGCGCCAACGUUCUCAACUAUGACACGCAAAACGCGUGCUCCGUUGAAUGGAGUUUAUCAUG	≤ -4.2
GGAUCUUUUCGAUCUAACAAAAAAGACAAAUCUGCCACAAAGCUUGAGAGCAUCUUCGCAUGCAGAGGCGGCAGCCUUCGGUGGCGCGAUAGCGCCAACGUUCUCAACUAUGACACGCAAAACGCGUGCUCCGUUGAAUGGAGUUUAUCAUG	-2.99
GGAUCUUUUCGAUCUAACAAAAAAGACAAAUCUGCCACAAAGCUUGAGAGCAUCUUCGGAUGCAGAGGCGGCAGCCUUCGGUAGCGCGAUAGCGCCAACGUUCUCAACUAUGACACGCAAAACGCGUGCUCCGUUGAAUGGAGUUUAUCAUG	-2.94
GGAUCUUUUCGAUCUAACAAAAAAGACAAAUCUGCCACAAAGCUUGAGAGCAUCUUCGGAUGCAGAGGCGGCAGCCUUCGGUUGCGCGAUAGCGCCAACGUUCUCAACUAUGACACGCAAAACGCGUGCUCCGUUGAAUGGAGUUUAUCAUG	-3.5
GGAUCUUUUCGAUCUAACAAAAAAGACAAAUCUGCCACAAAGCUUGAGAGCAUCUUCGGAUGCAGAGGCGGCAGCCUUCGGUCGCGCGAUAGCGCCAACGUUCUCAACUAUGACACGCAAAACGCGUGCUCCGUUGAAUGGAGUUUAUCAUG	-2.8
GGAUCUUUUCGAUCUAACAAAAAAGACAAAUCUGCCACAAAGCUUGAGAGCAUCUUCCGAUGCAGAGGCGGCAGCCUUCGGUGGCGCGAUAGCGCCAACGUUCUCAACUAUGACACGCAAAACGCGUGCUCCGUUGAAUGGAGUUUAUCAUG	-2.7
GGAUCUUUUCGAUCUAACAAAAAAGACAAAUCUGCCACAAAGCUUGAGAGCAUCUUCGGAUGCAGAGGCGGCAGCCUUCGGUGUCGCGAUAGCGCCAACGUUCUCAACUAUGACACGCAAAACGCGUGCUCCGUUGAAUGGAGUUUAUCAUG	-4.13
GGAUCUUUUCGAUCUAACAAAAAAGACAAAUCUGCCACAAAGCUUGAGAGCAUCUUCGGAUGCAGAGGCGGCAGCCUUCGGUGGCGUGAUAGCGCCAACGUUCUCAACUAUGACACGCAAAACGCGUGCUCCGUUGAAUGGAGUUUAUCAUG	-2.59
GGAUCUUUGCGAUCUAACAAAAAAGACAAAUCUGCCACAAAGCUUGAGAGCAUCUUCGGAUGCAGAGGCAGCAGCAUUCGGUGGCGGGCUAGCGCCAACGUUCUCAACUAUGACACGCAAAACGCGUGCUCCGUUGAAUGGAGUUUAUCAUG	≤ -4.2
GGAUCUUUUCGAUCUAACAAAAAAGACAAAUCUGCCACAAAGCUUGAGAGCAUCUACGGAUGCAGAGGCGGCAGCCUUCGGUGGCGCGAUAGCGCCAACGUUCUCAACUAUGACACGCAAAACGCGUGCUCCGUUGAAUGGAGUUUAUCAUG	-3.09
